# Data from the DeepSol protein solubility set.
# Test: soluble on expression in E. coli; label from the status in PepcDB or PDB records
row,Sequence,soluble on expression in E. coli
1,MAHHHHHHMCISELRSLRGHGRNVYIIYDVAKEGTPPPRHFASTSGWGMIAVSFPKVTNYDEWEKQLKAARIIMNCPDGMDVKAMCAWMERDGDTDEQTKYWKMVETHMEKVGPIPRHIFYAKGINARFGAVENALEAINSRYADDRFILPGGGLWYAKDPSQKLVRIVRIRGERGNERFRNAPICYFLGSRSANILAKAMSEKDFLLLVWGVRKTISSAYLEKFCLRALIFGRFFSAMAEELKELNSPAHDIQDTVLKANPGAHPTEICEIPGVGKIDAKQNINHRVLYIPMLRDFPLVDCFFFVESPRRTLVGLQMTTAGEHHTTTSTVRQFTEHLSKFFNGWDEFAQGLSWRDYLCAARRQHADEWLAEMWCRRPAECGRC,not soluble
2,HGPAPLDLDKYVEIARLCKYLPENDLKRLCDYVCDLLLEESNVQPVSTPVTVCGDIHGQFYDLCELFRTGGQVPDTNYIFMGDFVDRGYYSLETFTYLLALKAKWPDRITLLRGNHESRQITQVYGFYDECQTKYGNANAWRYCTKVFDMLTVAALIDEQILCVHGGLSPDIKTLDQIRTIERNQEIPHKGAFCDLVWSDPEDVDTWAISPRGAGWLFGAKVTNEFVHINNLKLICRAHQLVHEGYKFMFDEKLVTVWSAPNYCYRCGNIASIMVFKDVNTREPKLFRAVPDSVRASSPSPL,soluble
3,MLRTAGRDGLCRLSTYLEELEAVELKKFKLYLGTATELGEGKIPWGSMEKAGPLEMAQLLITHFGPEEAWRLALSTFERINRKDLWERGQREDLVRDTPPGGPSSLGNQSTCLLEVSLVTPRKDPQETYRDYVRRKFRLMEDRNARLGECVNLSHRYTRLLLVKEHSNPMQVQQQLLDTGRGHARTVGHQASPIKIETLFEPDEERPEPPRTVVMQGAAGIGKSMLAHKVMLDWADGKLFQGRFDYLFYINCREMNQSATECSMQDLIFSCWPEPSAPLQELIRVPERLLFIIDGFDELKPSFHDPQGPWCLCWEEKRPTELLLNSLIRKKLLPELSLLITTRPTALEKLHRLLEHPRHVEILGFSEAERKEYFYKYFHNAEQAGQVFNYVRDNEPLFTMCFVPLVCWVVCTCLQQQLEGGGLLRQTSRTTTAVYMLYLLSLMQPKPGAPRLQPPPNQRGLCSLAADGLWNQKILFEEQDLRKHGLDGEDVSAFLNMNIFQKDINCERYYSFIHLSFQEFFAAMYYILDEGEGGAGPDQDVTRLLTEYAFSERSFLALTSRFLFGLLNEETRSHLEKSLCWKVSPHIKMDLLQWIQSKAQSDGSTLQQGSLEFFSCLYEIQEEEFIQQALSHFQVIVVSNIASKMEHMVSSFCLKRCRSAQVLHLYGATYSADGEDRARCSAGAHTLLVQLPERTVLLDAYSEHLAAALCTNPNLIELSLYRNALGSRGVKLLCQGLRHPNCKLQNLRLKRCRISSSACEDLSAALIANKNLTRMDLSGNGVGFPGMMLLCEGLRHPQCRLQMIQLRKCQLESGACQEMASVLGTNPHLVELDLTGNALEDLGLRLLCQGLRHPVCRLRTLWLKICRLTAAACDELASTLSVNQSLRELDLSLNELGDLGVLLLCEGLRHPTCKLQTLRLGICRLGSAACEGLSVVLQANHNLRELDLSFNDLGDWGLWLLAEGLQHPACRLQKLWLDSCGLTAKACENLYFTLGINQTLTDLYLTNNALGDTGVRLLCKRLSHPGCKLRVLWLFGMDLNKMTHSRLAALRVTKPYLDIGC,soluble
4,MNKFKLGSDFDHLVNSLSDVELLNLFIQSCSQTTINGVPVPRFPPEEIQKQFVGASYEHALYEAYLFYRHIKEYAQNLGVPLNKESKVLDFGCGWGRIIRFLFKDASDQNLLGIDVDPAMITLCNETLGRGIYKTASPHPPVEFISDNSLDIIFAYSVFSHLSEATAENWVKEFSRVLRPGGIFIATTQARYFLDFCQQFQEHPELIQTGWHKTLSQAFPDIHRAISDYENGKFVHSPTGAGDVRNSSFYGETVIPRTYIENHYEKYLKLQDFFDDVNRLPQALFVLQKILEHHHHHH,not soluble
5,MHIAIIGAAGMVGRKLTQRLVKDGSLGGKPVEKFTLIDVFQPEAPAGFSGAVDARAADLSAPGEAEKLVEARPDVIFHLAAIVSGEAELDFDKGYRINLDGTRYLFDAIRIANGKDGYKPRVVFTSSIAVFGAPLPYPIPDEFHTTPLTSYGTQKAICELLLSDYSRRGFFDGIGIRLPTICIRPGKPNAAASGFFSNILREPLVGQEAVLPVPESIRHWHASPRSAVGFLIHGAMIDVEKVGPRRNLSMPGLSATVGEQIEALRKVAGEKAVALIRREPNEMIMRMCEGWAPGFEAKRARELGFTAESSFEEIIQVHIEDELGGSLK,soluble
6,MGSDKIHHHHHHMNAGLDGLLLLRAPNLAYATGLFLSANERPMGVWLPMDGDPILMLPGLERENAKGTGLTDLRFYDEFPGKEPPVLWMLDQIGRKHIGIDALDAALLDAARDKAVRIDLTDHAMAARTIKEPEEIALTVEAASFADLFLTRLHAAAGDIINQGGTEADLMADAMAHARGALMAKHKQAFSGTPMGITASVHSGPRAALPHGAVLERVPQPGETLIAGIGASLGGYHAESGVTLIVGSISAEQRQIMAAMKACNDAGVAACGARTTCTQANDAALDALRAAGLGDTIRHRIGHGMGLEGHEDPWLAPGDPTPIQTHMIFSNEPGVYRPGIDGYRTINTMIVTEDGVDIPSRFQANTPIDARVIAL,not soluble
7,MKYISPGFVDAHSHIGMIPDGLEWEFQEANDFYSPIAPHLRAVDGFDPYDEAFKEAIAGGVTTVATGPGSANVMGGIGLLAKTYEEGFEKIIKPEAFIKMALGPKRPREYKSKYPYPTTRMGTVALMRTWFKRAREFMEGKIKTDNIDEEEIEMLRLLARALKREIQVKIHLSTSPDEIYAAIRIIKEFNLNATIDHAFGSQLVADMLSREGIPVIYGPPMITRIASFFRYVDDKAPVLLFKKGVNVSIMTDHPVLPEKHLRLLAAVVARNGLSLDDALKLITINPAKALGIDRFVGSLEHHHHHH,not soluble
8,MAKAQLSQNGEARAWQRMLSGRRLDLLNPSPFDIEIEDIAHGLARVARWNGQTQGEYAYSVAQHSLLVEQIFQKLFPQSQNNECLCALLHDAPEYVIGDIISPFKAVIGKQYELIEKRIQDAIHMRFSLPVAPSQKLLKKIKQADRIAAFHESIILAGFNTEEALRYFGHPNNISPEGLNLQPCSTTKIENAFLKRFHDLDVERLH,not soluble
9,MDAIFNNNFEKYKDDPEMTRALMTSKESLEDENWDTYLQWFKENKYEVLEVKEGKNKSTLTVKATFNSFADIPNDDVMGIIFTEVYKASKNKIKSLDEEDDIFDEEFMINVTNKLMDKSKKETKEIKVYMDKVNGKWDLIEDEDNDDDIVNMELISTMTPLLEKFLEITTEFEGFEGF,not soluble
10,MEGPLSKWTNMVHGWQYRWFKIENDTLLYYTSREKMLKGQQRGQIRLTGAVVGIDGENNSLFTITVEGKTFHMQGRDLRERNQWVRILENSIRASSGYAKNVSVGTTPSQHFKQRTEEANEFLKTLVEKVKALEQLKSGERAVDEKKTIDSLIAASNNLTNNVKHAIIYLQMAQARLDPNMKTEKLMFTHPDLNEKPSSRETPGTVSDSTQTSTDKPISGIQHLDHLKPQRAESYASSDEEEFYDADEELIDLDNFESEKSGQESGDSNRTSDAAIMSSDEDGYDFGDSNEDFDEIYNNAEEHDIGNVQQDHGSVLMHLLSQVSVGMDLTKVTLPTFILERRSLLEMYADFFAHPDLFIATNGNDSAEKRMIAVVRYYLNSFYAARKSGVAKKPYNAILGETFRCRYSVPNSSLSGKKTESGPWPGSDEKQLTFIAEQVSHHPPISAFYAEMPSEGISFNAHIYTKSSFLGLSIGVASIGEGILTLHNYGDEQYTITFPSGYGRSIMSTPWFEFGGKVKVECEKTGYRADIEFLTKPFFGGKPHRIQGSICRDGAKKPVLTLRGEWNGTMYAKTQNGEEYVFVDVKAKPEVKKECVPVMQQGKRESRRLWRHVTAALLRNRIQTATTSKRFIEQRQRKEAKERLESGEKWTPLLFDTTDKDGEWMYKQKFGVRKAV,not soluble
11,MQFTLEHAQDVLSGMPDPTFILSEDGIYIDVFGGTDKKAYHDGSNLIGKTLHSVLEKEQADWFIEQINRSLNQDSIVTIEYKMCADSIQGIDANSGPKGDLYYEGKICPLTINYQGRRVVLILTRNISNRHRVETLLRHQSQI,not soluble
